Here are results for 1 substance from patent US20020049180.

Some targets named below: GST-p53 (1-106) (UniProt P04637); GST-hDM2 (330-491) (UniProt Q00987); GST-Chk2(1-222) (UniProt O96017).
Data set [1] has as its target GST-fusion protein containing amino acids 327-517 of KIAA0175 (UniProt Q14680).
For data set [2], the target named is GST-fusion protein containing amino acids 42-182 of KIAA0175 (UniProt Q14680).
The target of data set [3] is KIAA0175 (327-517) with serine 391 mutated to alanine (UniProt Q14680).
Data set [4] concerns the target GST-fusion protein containing amino acids 227-325 of KIAA0175 (UniProt Q14680).

Turning to Ataxia telangiectasia mutated (ATM), the “in vitro phosphorylation by ATM immunoprecipitates” value in data set [1] is “A fusion including amino acids 327-517 harboring S^391Q was a substrate for ATM”; in data set [2], “amino acid 42-182 (containing S100Q and S^125Q) ... were not phosphorylated”; with GST-p53 (1-106) it was “KIAA0175 (327-517) phosphorylation was comparable to that seen with several known substrates of ATM included in the same assay, GST-p53 (1-106)”; with GST-hDM2 (330-491), “KIAA0175 (327-517) phosphorylation was comparable to that seen with several known substrates of ATM included in the same assay, ... GST-hDM2 (330-491)”; in data set [4], “amino acids 227-325 with no SQ sites, were not phosphorylated”; in the data set with GST-Chk2(1-222), “KIAA0175 (327-517) phosphorylation was comparable to that seen with several known substrates of ATM included in the same assay, ... GST-Chk2(1-222)”. The “irradiation induced phosphorylation by ATM” value in data set [3] is on record as “Mutation of serine 391 to alanine completely abolished the irradiation induced phosphorylation by ATM”.
